{"source": "patent US20150080549A1", "about": "(Chugai, published 2015)", "note": "Starred links: 1 amine or outer side, 2 acyl side, 3 side chain; linkers in the order of their positions; H or OH if unused. Positions of bridges follow the written chain, without caps; N, C: chain ends. Non-standard residues stand in square brackets, D forms with d. γEtAbu = 4-(ethylamino)butanoic acid, CCN(CCCC(=O)[*:2])[*:1]; NMeAla(4-thiazolyl) = CN[C@@H](Cc1cscn1)C(=O)O; NMePhe(3-Cl) = CN[C@@H](Cc1cccc(Cl)c1)C(=O)O; Met(O2) = CS(=O)(=O)CC[C@H](N)C(=O)O; NMeF = CN[C@@H](Cc1ccccc1)C(=O)O; FlPu(urea) = not defined here; Phg = N[C@H](C(=O)O)c1ccccc1; NMeS = CN[C@@H](CO)C(=O)O; NMeA = CN[C@@H](C)C(=O)O; βAla = NCCC(=O)O; Sar = CNCC(=O)O", "data": [{"target": "T1, biotinylated Recombinant Human TNFR1/Fc Chimera (SinoBiological, Catalog Number 10872-H03H) (human, UniProt P19438 22-211, biotinylated with EZ-Link NHS-PEG4-Biotin (Thermo scientific 21329); sites not stated)", "T1 construct": "Bought Fc chimera; also called tumor necrosis factor receptor 1; Fc part of the bought chimera not given", "T1 sequence (looked up)": "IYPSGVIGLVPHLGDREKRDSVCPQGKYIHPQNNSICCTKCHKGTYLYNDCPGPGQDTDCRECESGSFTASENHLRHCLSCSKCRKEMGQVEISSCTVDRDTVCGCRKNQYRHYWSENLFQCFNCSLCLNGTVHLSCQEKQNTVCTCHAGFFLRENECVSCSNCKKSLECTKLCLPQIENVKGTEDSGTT", "experiment": "ECL immunoassay (MSD): biotinylated target on streptavidin plate, translated FlPu(urea)-labelled cyclic peptide (Translation Solution T), anti-fluorescein and SULFO-TAG anti-mouse antibody; no-template control 293", "method": "0.5 μl of a 200 mM EDTA solution (pH 8.0, Nacalai, 14362-24) and 0.5 μl of a 100 mM TCEP solution (pH 6.6) were added to 5 μL of the translation mixture, and the mixture was incubated at 37° C. for 120 minutes to cause cyclization reaction. 11 μL of desulfurization buffer (15 mM cysteine, 36 mM TCEP) was added to the cyclization product, and the mixture was incubated at 42° C. for 1 minutes, after which 4 μL of 1 M VA-044 (Wako, CAS No. 27776-21-2) was added and the mixture was allowed to stand at 42° C. for 1 hour.\nImmunoassay was carried out using the above peptide solution for ECL assay. 500 nM biotinylated target protein was added at 10 μL per well to MSD Streptavidin MULTI-ARRAY 384-well plate (Meso Scale Discovery, L25SB-1), and reaction was conducted at room temperature for 1 hour with shaking at 500 rpm to immobilize the target protein. 2% skim milk PBS was added at 50 μL per well, and blocking was carried out by allowing to stand at room temperature for 2 hours. The reaction solution was removed and the plate was washed with PBS containing 0.05% Tween 20 (PBST) three times, after which 10 μL of the peptide solution for ECL assay was added and the plate was shaken at room temperature for 50 minutes at 500 rpm. The reaction solution was removed and the plate was washed with PBST three times, after which 10 μL of IgG Fraction Monoclonal Mouse Anti-Fluorescein (Jackson ImmunoResearch, 200-002-037) diluted to 0.5 μg/mL with 2% skim milk PBS was added, and reaction was conducted at room temperature for 50 minutes with shaking at 500 rpm. […] The reaction solution was removed and the plate was washed with PBST three times, after which 35 μl, of 2× Read Buffer T (Meso Scale Discovery, R92TC-3) was added and measurement was carried out using SECTOR Imager 2400 (Meso Scale Discovery).", "values": [{"binder": "AP[Sar]VITV[NMeS][Phg]SD[NMeA][NMePhe(3-Cl)]SGSGSGS-{FlPu(urea)} (lactam N-11; reading uncertain, Translated in ECL Translation Solution T, cyclized and desulfurized; not isolated; also called translation product of template DNA DME-6)", "note": "[SEQ ID NO: PE-6 (TNFR1 binder) peptide]", "ECL signal": 3610}, {"binder": "AP[Sar]IIVS[NMeS][Phg][Phg]D[NMeAla(4-thiazolyl)]TSGSGSGS-{FlPu(urea)} (lactam N-11; reading uncertain, Translated in ECL Translation Solution T, cyclized and desulfurized; not isolated; also called translation product of template DNA DME-5)", "note": "[SEQ ID NO: PE-5 (TNFR1 binder) peptide]", "ECL signal": 3760}, {"binder": "A[dY]IW[Met(O2)]S[Met(O2)][NMePhe(3-Cl)]V[NMeF]DT[NMePhe(3-Cl)]SGSGSGS-{FlPu(urea)} (lactam N-11; reading uncertain, Translated in ECL Translation Solution T, cyclized and desulfurized; not isolated; also called translation product of template DNA DME-4)", "note": "[SEQ ID NO: PE-4 (TNFR1 binder) peptide]", "ECL signal": 32000}]}, {"target": "T2, biotinylated Interleukin-6 receptor (IL-6R) (human, UniProt P08887 20-344, limits assumed, biotinylated (method of BMC biotechnology, 2008, 8, 41 and Protein Science, 1999, 8, 921-929); site not stated)", "T2 construct": "also called human IL-6 receptor; hIL-6R", "T2 sequence (looked up)": "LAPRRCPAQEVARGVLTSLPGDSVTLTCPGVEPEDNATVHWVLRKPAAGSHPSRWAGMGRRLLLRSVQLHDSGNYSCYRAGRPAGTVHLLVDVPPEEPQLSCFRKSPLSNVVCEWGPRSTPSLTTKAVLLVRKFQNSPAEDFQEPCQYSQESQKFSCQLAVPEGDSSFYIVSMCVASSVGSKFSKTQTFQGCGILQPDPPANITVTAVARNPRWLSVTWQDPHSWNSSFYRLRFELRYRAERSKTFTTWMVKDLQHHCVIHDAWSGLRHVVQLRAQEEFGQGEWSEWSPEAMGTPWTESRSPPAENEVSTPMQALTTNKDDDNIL", "experiment": "SPR, Biacore T200, 20 C; biotinylated IL-6R captured on sensor chip CAP, peptide as analyte; KD=koff/kon from curve fitting", "method": "An SPR experiment for analyzing the interaction between synthetic peptides and IL-6R was conducted using Biacore T200 (GE healthcare) at 20° C. Synthetic peptides were added to the immobilized IL-6R, and the interaction was evaluated.\nCAP reagent was immobilized on a Biacore sensor chip, Series S sensor chip CAP (GE healthcare), according to the instructions, and biotinylated IL-6R was further immobilized.\nThe obtained sensorgrams were analyzed using T200 evaluation software (GE healthcare) or Scrubber2 (Biologic software). First, solvent correction for DMSO and double reference (correction by subtracting sensorgrams of flow cells where IL-6R was not immobilized and sensorgrams in the case where the buffer was added) were carried out. Second, binding rate constants (kₒₙ) and dissociation rate constants (koff) were calculated from curve fitting to the corrected sensorgrams, and KDs were determined by the relational expression KD=koff/kₒₙ.", "units": {"Kd": "µM"}, "values": [{"binder": "AII[NMeAla(4-thiazolyl)]WP[NMePhe(3-Cl)][Met(O2)][dY][βAla]DP[NMePhe(3-Cl)]S-OH (lactam N-11; SMILES CC[C@H](C)[C@@H]1NC(=O)[C@H](C)NC(=O)C[C@@H](C(=O)N2CCC[C@H]2C(=O)N(C)[C@@H](Cc2cccc(Cl)c2)C(=O)N[C@@H](CO)C(=O)O)NC(=O)CCNC(=O)[C@@H](Cc2ccc(O)cc2)NC(=O)[C@H](CCS(C)(=O)=O)NC(=O)[C@H](Cc2cccc(Cl)c2)N(C)C(=O)[C@@H]2CCCN2C(=O)[C@H](Cc2c[nH]c3ccccc23)NC(=O)[C@H](Cc2cscn2)N(C)C(=O)[C@H]([C@@H](C)CC)NC1=O, Chemically synthesized, HPLC purified)", "note": "[Compound SP855]", "Kd": 5.3}, {"binder": "APVI[NMeF][Met(O2)]P[NMePhe(3-Cl)]V[Met(O2)]DP[Sar]S-{NH(CH2)2NMe2} (lactam N-11, Made from Compound SP854 by amidation of the C-terminal carboxylic acid)", "note": "[Compound SP859]", "Kd": 0.55}, {"binder": "APVI[NMeF][Met(O2)]P[NMePhe(3-Cl)]V[Met(O2)]DP[Sar]S-OH (lactam N-11; SMILES CC[C@H](C)[C@@H]1NC(=O)[C@H](C(C)C)NC(=O)[C@@H]2CCCN2C(=O)[C@H](C)NC(=O)C[C@@H](C(=O)N2CCC[C@H]2C(=O)N(C)CC(=O)N[C@@H](CO)C(=O)O)NC(=O)[C@H](CCS(C)(=O)=O)NC(=O)[C@H](C(C)C)NC(=O)[C@H](Cc2cccc(Cl)c2)N(C)C(=O)[C@@H]2CCCN2C(=O)[C@H](CCS(C)(=O)=O)NC(=O)[C@H](Cc2ccccc2)N(C)C1=O, Chemically synthesized, HPLC purified)", "note": "[Compound SP854]", "Kd": 1.8}, {"binder": "[γEtAbu]IVW[NMePhe(3-Cl)][Met(O2)]P[NMePhe(3-Cl)][dY][Met(O2)]D[NMeAla(4-thiazolyl)][NMeA]S-OH (lactam N-11; SMILES CC[C@H](C)[C@@H]1NC(=O)CCCN(CC)C(=O)C[C@@H](C(=O)N(C)[C@@H](Cc2cscn2)C(=O)N(C)[C@@H](C)C(=O)N[C@@H](CO)C(=O)O)NC(=O)[C@H](CCS(C)(=O)=O)NC(=O)[C@@H](Cc2ccc(O)cc2)NC(=O)[C@H](Cc2cccc(Cl)c2)N(C)C(=O)[C@@H]2CCCN2C(=O)[C@H](CCS(C)(=O)=O)NC(=O)[C@H](Cc2cccc(Cl)c2)N(C)C(=O)[C@H](Cc2c[nH]c3ccccc23)NC(=O)[C@H](C(C)C)NC1=O, Chemically synthesized, HPLC purified)", "note": "[Compound SP856]", "Kd": 13}]}]}
